Reference: US20230049152A1

Molecular target: human CCR8 (human) (UniProt P51685)
Assay: cell-based or functional assay

- ADCC reporter EC50, mFcgRIV Jurkat cells with CHO/hCCR8 (FIG. 11D): 0.26 nM
- CCL1 blocking potency IC50, Ca2+ influx: 17.6 nM
- induction fold at about 1 nM antibody, mFcgRIV Jurkat NFAT-luciferase reporter: > 12 fold
- induction fold plateau at about 40 nM antibody, mFcgRIV Jurkat NFAT-luciferase reporter: 13 fold
B1: murine anti-human CCR8 mAb 433H (BD Biosciences) (antibody, from another filing, mouse IgG2a, V domains shown)
VH: EVQLVETGGGLVQPKGSLRLSCAASGFPFNTFAMNWVRQAPGKGLEWLARIRSKSNNYATYYADSVKDRFTISRDDSRRMLYLLMNNVKFEDTAIYYCVRGKENNYGYAMDYWGQGTSVTVSS
VL: DIVMTQAAPSVPVTPGESVSISCRSSQSLLHSNGNTYLYWFLQRPGQSPQLLIYRMSNLASGVPDRFSGSGSGTAFTLRISRVEAEDVGVYYCMQHLEYPFTFGIGTKLELKR
